Source: patent US20240016943
pKd: −log10 of the molar value.

What was measured:
Assay in all cases: EMSA
B1-Z2 helical tetramer = system: T1, B1-Z2 helical tetramer
T1 sequence 1: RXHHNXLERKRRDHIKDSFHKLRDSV
T1 sequence 2: XAQILCKATEYIQXMRRXN

B8-Z = system: T2, B8-Z; conditions: apparent; Table 14 gives 672 (conflict)
T2 sequence 1: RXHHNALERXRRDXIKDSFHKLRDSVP
T2 sequence 2: XRAQILCKATEYIQYXRRK

B-Z4 = B-Z4 (UniProt P61244); conditions: apparent; Table 14 gives 14
B-Z1 = B-Z1 (UniProt P61244); conditions: apparent; Table 14 gives 45
B11-Z81 = B11-Z81 (UniProt P61244); conditions: method inferred
B-ZL1 = B-ZL1 (UniProt P61244+P61244); conditions: listed as B-ZLI1; Table 14 gives 19
STR116 (B11-Z6) = STR116 (B11-Z6) (UniProt P61244); conditions: 95% CI 13-16; B11-Z6 14 in Table 14
BLI1s-Z = BLI1s-Z (UniProt P61244); conditions: 25 nM sDBD
B1-Z = system: T3, B1-Z; conditions: apparent; Table 14 gives 17
T3 sequence 1: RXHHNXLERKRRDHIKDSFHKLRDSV
T3 sequence 2: XRAQILCKATEYIQYXRRK

BLI1-Z = BLI1-Z (UniProt P61244); conditions: apparent; Table 14 gives 12
B-ZM3 = B-ZM3 (UniProt P61244+P61244); conditions: 25 nM sDBD
BMYCs-Z = BMYCs-Z (UniProt P61244); conditions: 25 nM sDBD; listed twice, second value 19% (possibly BMYC-Z)
B4-Z = system: T4, B4-Z; conditions: apparent; Table 14 gives 25 (conflict)
T4 sequence 1: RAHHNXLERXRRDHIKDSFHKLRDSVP
T4 sequence 2: XRAQILCKATEYIQYXRRK

BLI1-ZM4 = BLI1-ZM4 (UniProt P61244)
B11-Z7 = B11-Z7 (UniProt P61244)
B1-Z1 = system: T5, B1-Z1
T5 sequence 1: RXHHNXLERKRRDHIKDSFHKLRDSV
T5 sequence 2: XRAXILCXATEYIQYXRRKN

B2-Z4 = system: T6, B2-Z4
T6 sequence 1: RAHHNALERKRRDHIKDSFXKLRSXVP
T6 sequence 2: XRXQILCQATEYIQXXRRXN

B-Z helical tetramer = B-Z helical tetramer (UniProt P61244+P61244)
B3-Z = system: T7, B3-Z; conditions: apparent; Table 14 gives 76
T7 sequence 1: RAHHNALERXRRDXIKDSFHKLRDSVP
T7 sequence 2: XRAQILCKATEYIQYXRRK

B8-Z4 = system: T8, B8-Z4
T8 sequence 1: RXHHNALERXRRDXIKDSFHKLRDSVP
T8 sequence 2: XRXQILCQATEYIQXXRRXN

STR118 (B11-Z8) = STR118 (B11-Z8) (UniProt P61244); conditions: 95% CI 3.0-4.0; B11-Z8 4.2 in Table 14
[1] = target: B-Z5 (C-terminally truncated zipper) (UniProt P61244); conditions: apparent; Table 14 gives 88
BLI1-ZM5 = BLI1-ZM5 (UniProt P61244)
B7-Z = system: T9, B7-Z; conditions: apparent; Table 14 gives 173
T9 sequence 1: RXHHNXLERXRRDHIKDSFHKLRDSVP
T9 sequence 2: XRAQILCKATEYIQYXRRK

BMADs-Z = BMADs-Z (UniProt P61244); conditions: 25 nM sDBD; listed twice, second value 82% (possibly BMAD-Z)
B11s-Z8 = B11s-Z8 (UniProt P61244); conditions: method inferred
[2] = target: B (MAX basic helix alone) (UniProt P61244); conditions: basic helix alone
B12-Z6 = system: T10, B12-Z6
T10 sequence 1: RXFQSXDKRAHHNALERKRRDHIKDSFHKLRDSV
T10 sequence 2: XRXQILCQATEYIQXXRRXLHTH

B5-Z4 = system: T11, B5-Z4; conditions: 95% CI 98-126; Table 14 gives 118
T11 sequence 1: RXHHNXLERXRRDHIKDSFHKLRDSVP
T11 sequence 2: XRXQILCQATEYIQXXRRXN

B-Z2 = B-Z2 (UniProt P61244); conditions: apparent; Table 14 gives 22
B-Z3 = B-Z3 (UniProt P61244); conditions: apparent; Table 14 gives 15
B1-Z4 = system: T12, B1-Z4; conditions: 95% CI 37-43
T12 sequence 1: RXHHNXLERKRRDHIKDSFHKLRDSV
T12 sequence 2: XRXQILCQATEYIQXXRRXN

B10-Z6 = B10-Z6 (UniProt P61244)

Substance: E-box probe
- pKd (B1-Z2 helical tetramer): 8.74
- pKd (B8-Z): 7.18
- pKd (B-Z4): 7.70
- pKd (B-Z1): 7.24
- pKd (B11-Z81): < 7.00
- pKd (B-ZL1): 7.70
- pKd (STR116 (B11-Z6)): 7.85
- binding signal (BLI1s-Z): 50 % bound
- pKd (B1-Z): 7.74
- pKd (BLI1-Z): 8.08
- binding signal (B-ZM3): 53 % bound
- binding signal (BMYCs-Z): 27 % bound
- pKd (B4-Z): 6.62
- pKd (BLI1-ZM4): 8.00
- pKd (B11-Z7): 7.66
- pKd (B1-Z1): 7.31
- pKd (B2-Z4): 7.82
- pKd (B-Z helical tetramer): 8.70
- pKd (B3-Z): 7.11
- pKd (B8-Z4): 6.79
- pKd (STR118 (B11-Z8)): 8.46
- pKd [1]: 7.01
- pKd (BLI1-ZM5): 8.55
- pKd (B7-Z): 6.77
- binding signal (BMADs-Z): 63 % bound
- pKd (B11s-Z8): 8.19
- pKd [2]: < 5.70
- pKd (B12-Z6): 8.10
- pKd (B5-Z4): 6.95
- pKd (B-Z2): 7.66
- pKd (B-Z3): 7.74
- pKd (B1-Z4): 7.40
- pKd (B10-Z6): 7.80
